Experimental data: patent US20100233802A1

Legend:
[1] = biological target: SNAP-25 peptide comprising amino acids 134-197 of SEQ ID NO: 5 (human); assay: SPR, BIAcore 3000, peptide on CM5 chip, antibody as analyte, 1:1 model
[2] = biological target: SNAP-25 peptide comprising amino acids 134-206 of SEQ ID NO: 5 (human); assay: as above

| Substance | Kd [1] | koff [1] | kon [1] | Kd [2] | koff [2] | kon [2] |
| --- | --- | --- | --- | --- | --- | --- |
| mouse α-SNAP-25 monoclonal antibody MC-6050 (Research & Diagnostic Antibodies) | 0.497 nM | 0.000882 s⁻¹ | 1.78e+06 M⁻¹ s⁻¹ | 19.8 µM | 0.00607 s⁻¹ | 306 M⁻¹ s⁻¹ |
| mouse α-SNAP-25 monoclonal antibody MC-6053 (Research & Diagnostic Antibodies) | 0.508 nM | 0.00118 s⁻¹ | 2.32e+06 M⁻¹ s⁻¹ | 0.24 µM | 2.56e-05 s⁻¹ | – |
